Reference: patent publication US20250277199, “NOVEL CRISPR-CAS NUCLEASES FROM METAGENOMES” (Brain Biotech AG, published 2025)

Target: T1, BMC09 (uncultured bacterium (metagenome))
T1 chain: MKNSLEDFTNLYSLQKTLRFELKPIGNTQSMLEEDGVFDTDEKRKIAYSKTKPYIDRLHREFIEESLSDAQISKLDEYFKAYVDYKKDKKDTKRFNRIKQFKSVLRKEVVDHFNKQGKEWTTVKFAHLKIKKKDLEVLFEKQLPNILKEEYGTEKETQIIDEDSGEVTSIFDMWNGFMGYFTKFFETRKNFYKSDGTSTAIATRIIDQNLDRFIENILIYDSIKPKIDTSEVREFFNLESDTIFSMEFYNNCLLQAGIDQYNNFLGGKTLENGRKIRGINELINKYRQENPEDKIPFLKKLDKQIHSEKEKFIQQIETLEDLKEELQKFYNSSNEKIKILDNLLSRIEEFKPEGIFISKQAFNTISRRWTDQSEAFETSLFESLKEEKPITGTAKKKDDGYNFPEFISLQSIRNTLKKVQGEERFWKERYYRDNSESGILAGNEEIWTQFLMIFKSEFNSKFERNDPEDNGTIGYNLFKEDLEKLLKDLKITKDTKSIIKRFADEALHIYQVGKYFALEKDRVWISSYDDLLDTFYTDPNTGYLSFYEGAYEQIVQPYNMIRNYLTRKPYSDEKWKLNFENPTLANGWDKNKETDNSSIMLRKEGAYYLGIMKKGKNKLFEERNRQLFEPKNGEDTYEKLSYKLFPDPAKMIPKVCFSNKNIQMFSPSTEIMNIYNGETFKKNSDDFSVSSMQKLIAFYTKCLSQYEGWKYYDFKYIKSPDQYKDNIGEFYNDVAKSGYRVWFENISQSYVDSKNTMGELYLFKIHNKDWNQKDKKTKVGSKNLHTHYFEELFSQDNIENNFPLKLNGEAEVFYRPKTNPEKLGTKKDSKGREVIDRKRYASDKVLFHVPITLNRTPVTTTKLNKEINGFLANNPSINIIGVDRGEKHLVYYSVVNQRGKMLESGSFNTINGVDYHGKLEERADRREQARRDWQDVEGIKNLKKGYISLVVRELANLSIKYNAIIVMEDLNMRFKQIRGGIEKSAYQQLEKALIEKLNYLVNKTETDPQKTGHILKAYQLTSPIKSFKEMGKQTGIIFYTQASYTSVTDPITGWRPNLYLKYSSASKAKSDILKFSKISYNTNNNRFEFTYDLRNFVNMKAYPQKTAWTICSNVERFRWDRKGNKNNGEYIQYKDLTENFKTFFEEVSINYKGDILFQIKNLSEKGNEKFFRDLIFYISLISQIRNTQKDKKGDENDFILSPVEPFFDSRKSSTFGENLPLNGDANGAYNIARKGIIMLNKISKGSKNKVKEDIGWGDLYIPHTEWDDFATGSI
Test: cell_activity; PAM not stated; E. coli depletion, 30 C
Outline: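 E. coli carrying arabinose-induced (0.2%) BMC nuclease, grown at 30° C., made electrocompetent and electroporated with 50-100 ng plasmid carrying gRNA against malQ. Transformants plated on selective M9-glucose agar with kanamycin/ampicillin (± nourseothricin), and growth scored after 48 h at 30° C.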

B1: malQ gRNA (BMC stem-loop + 24 nt spacer) ; malQ protospacer (ssRNA ; dsDNA)
RNA: GAUUUCUACUAUUGUAGAUGUGGCGGUACGUUGAUGCAUCGCG
DNA 1: GTGGCGGTACGTTGATGCATCGCG
DNA 2: CGCGATGCATCAACGTACCGCCAC
activity: > 99.9 % colony reduction
